Source: the DeepSol protein solubility set

Assay: soluble on expression in E. coli; label from the status in PepcDB or PDB records
For “MRFPELEELKNRRTLKWTRFPEDVLPLWVAESDFGTCPQLKEAMADAVEREVFGYPPDATGLNDALTGFYERRYGFGPNPESVFAIPDVVRGLKLAIEHFTKPGSAIIVPLPAYPPFIELPKVTGRQAIYIDAHEYDLKEIEKAFADGAGSLLFCNPHNPLGTVFSEEYIRELTDIAAKYDARIIVDEIHAPLVYEGTHVVAAGVSENAANTCITITATSKAWNTAGLKCAQIFFSNEADVKAWKNLSDITRDGVSILGLIAAETVYNEGEEFLDESIQILKDNRDFAAAELEKLGVKVYAPDSTYLMWLDFAGTKIEEAPSKILREEGKVMLNDGAAFGGFTTCARLNFACSRETLEEGLRRIASVL”, the “soluble on expression in E. coli” value was “not soluble”. In the case of “MRFTVTSRGDDVSNTLQQKIKRYLLDFGLTLDEQEPDIVITVGGDGTLLHAFHRYTSRLEDTAFVGIHTGHLGFYADWVPDEVEKLVIHIAKTPYQIVEYPLLEVVVRHTDESESKRLLALNECTVKSQEGSLVSNVEIKGDVFEVFRGDGLCISTPSGSTAYNKALGGAILHPSLASIQISEMASINNRVYRTIGSPLVLPQHHTCLIKPLNQVELQVTIDHFTLAYKRVKSIQCRVAEEKIRFARFRPFPFWKRVKESFIGDSLEHHHHHH”, the “soluble on expression in E. coli” value is reported as “soluble”. For “MRFVMPGDRIGSAEEYVKGEGVYEEGGELFAAVAGKLIIKDRVAKVESISPIPEIVKGDVVLGRVVDLRNSIALIEVSSKKGENRGPSNRGIGILHVSNVDEGYVKEISEAVGYLDILKARVIGDNLRLSTKEEEMGVLRALCSNCKTEMVREGDILKCPECGRVEKRKISTDYGKGEW”, the “soluble on expression in E. coli” value was “soluble”. For “MRGKLDLGEQPLVLIWEVTQACELACKHCRADAQPRRHPDELSTAEGKALLDQASEFGDGQLVVLSGGDPLARGDLPELVEYGTEQGLRMTLTPSGTNSITPERLAELDDAGLRRLALSIDGGDSDAHDTFRGESGSFEATMAAAEAARNLDIPLQINTTVCAETVEQLPAIRDLVADLDAVLWSVFFLVPVGRGRVLTPIDPERAERVLKWLHEVSDEASFGLKTTEAPHYRRVAMEQQDEGASGLKRRMGIRAGKGFAFVSHTGEVFPSGFLPKSAGSVREESVVDIYRDSPLFQQLRDDDALTGKCGACRYRTVCGGSRSRAYATTGDPLAADPLCDYRPDGFEGSVPDQHPAD”, the “soluble on expression in E. coli” value was “not soluble”. With “MRGLAVLVLLVFAVQVAAAEDFRPVVFVHGLAGSAGQFESQGMRFAANGYPAEYVKTFEYDTISWALVVETDMLFSGLGSEFGLNISQIIDPETLDKILSKSRERLIDETFSRLDRVIDEALAESGADKVDLVGHSMGTFFLVRYVNSSPERAAKVAHLILLDGVWGVDAPEGIPTLAVFGNPKALPALGLPEEKVVYNATNVYFNNMTHVQLCTSPETFAVMFEFINGYKPATTDIVPQDGDYVKVKGKFLAFATNGDVSGWLSIYPIDENGKRLTRLPVKFMRVKGDFEVRLRKGQLYEFQFRKDFSPIIYHYYRAPFVRDDLWARFLVSKPPLDVELLILPERLSPAAKETSGLLLIRYKEMIGEYDEEIGGVDEVYVNGVNVCTERICPIERAVNGLWVFDRGADGKSDLDREVVRYSIMPFMSAADLVVPAEGTISIAVKSRTGGEESFTIPAWSADRHSIIVQFSDYI” the “soluble on expression in E. coli” value was “not soluble”. For “MRGPVKIVATVGPSSSSASILAQMLSLGVDVARINASHGGVEQWNSMLESLRRAEEAVGKRVGVAVDLEGPRVRTGNSEPVKLEKGDLVTLGFMEGDVPVDARQFFETIDEGDIVLLDDGKIILQVESVEGFRVKARVLEGGVLGPRKGVVVRGKEPDLPPLSAKDRRALEFFADKGVSHVYVSFARSAEHVEKVRTVVRRLGLRQARIFAKIEGPSGVSRIGEIAEASDGVIIARGDLGMHYSLEELPEIQELIVWEARKRYKTVVLATEFLSSMIEKPVPTRSEVVDIYQAVLQTADALMLTGETAIGKYPVKSVQWMAKISSRAYKKLATSPPERPRPTSTPYKLALGLVELAESLDSPLVVYSKTGRFAERLASFKPLKTFYVGVPSREVERVVRHLWGAEPIVVGDYPYEAGLAKTYEKLRRENIIHGDETVVEAAWSSERGIYIIRVRNLEF”, the “soluble on expression in E. coli” value was “soluble”. In the case of “MRGQNRRGYRNIEGRLSLSSHSSHSSPRQTHVTNLRPAEIKVVQDVVDGCYVATDDVLNLSNFSKNTEFVERDMLMCLTKTRVMSVVLQHIGYKYPRISGISFSNNRLCHLDHLSSLSSISKFLKFLDLSHNQISSGEELKKLGTIPVETVFFEGNPVCEKFVQCAEYANFIQKTFPKCSNLDGMEVEPKPDHNRIEQIIPFRNGYYGSDEVRTLVEEFIITYYKIYDGADGQQTRKQLLDAYDTNNSTFTHTVVCLWDPIKFVMYPDSESYRMYLRTSHNVLNQEYFAANRASRISHGAMDIVVALSRLPATIHLMDTFVVDVFLVSATLLGFTLHGTFRDGPSAIKPENTEEHDNYFTRTFMVAPRGEGKVAIVSDQLFISSMSKRRGDQYRMLVETATDIDQ”, the “soluble on expression in E. coli” value is reported as “not soluble”. With “MRGSHHHHHHGMASMAVSESQLKKMVSKYKYRDLTVRETVNVITLYKDLKPVLDSYVFNDGSSRELMNLTGTIPVPYRGNTYNIPICLWLLDTYPYNPPICFVKPTSSMTIKTGKHVDANGKIYLPYLHEWKHPQSDLLGLIQVMIVVFGDEPPVFSRP” the “soluble on expression in E. coli” value was “soluble”. In the case of “MRGSHHHHHHGMASMTGGQQMGRDLYDDDDKDHPFMAQRTEESKGKLSFATQGGQGEGSYSKSNSAASKTLSACIVPSLEEFLLHHFSPPQGAGPIYYADFGCAVGANTIGLAKFVTETLKSRPEISERDFLCYFADLPTNDFNTLFNQFPPLASRDGGNGNVEERTWFAAGVPGNQFNRMFPRSSLHVAITTLTLHYLPEIPKSITDESSPTFNRGCISSHGASPAVAEVFADTSREGLRKFFQCRAEELASGGVLAFYFPSRPDRAHPERQMSEDSMQLALWKVETAWRELVAEGVMPEELLDTFNVPNCHPSKEEVEEVVDHETSCFHIQKLEYIHKHPFSPPNPELILKDAQSYAKWWTGILRGGLGGMLSAHMAPELTEALMERFSKHIEKDYLEKKPQFPMIMNICMGILIRK”, the “soluble on expression in E. coli” value is reported as “soluble”. In the case of “MRGSHHHHHHGMASMTGGQQMGRDLYDDDDKDHPFTMFYEKIQTPAYILEEDKLRKNCELLASVGEKSGAKVLLALKGFAFSGAMKIVGEYLKGCTCSGLWEAKFAKEYMDKEIHTYSPAFKEDEIGEIASLSHHIVFNSLAQFHKFQSKTQKNSLGLRCNVEFSLAPKELYNPCGRYSRLGIRAKDFENVDLNAIEGLHFHALCEESADALEAVLKVFEEKFGKWIGQMKWVNFGGGHHITKKGYDVEKLIALCKNFSDKYGVQVYLEPGEAVGWQTGNLVASVVDIIENEKQIAILDTSSEAHMPDTIIMPYTSEVLNARILATRENEKISDLKENEFAYLLTGNTCLAGDVMGEYAFDKKLKIGDKIVFLDQIHYTIVKNTTFNGIRLPNLMLLDHKNELQMIREFSYKDYSLRN”, the “soluble on expression in E. coli” value is reported as “soluble”. With “MRGSHHHHHHGMASMVNTKPEKTEEDSEEVREQKHKTFVEKYEKQIKHFGMLRRWDDSQKYLSDNVHLVCEETANYLVIWCIDLEVEEKCALMEQVAHQTIVMQFILELAKSLKVDPRACFRQFFTKIKTADRQYMEGFNDELEAFKERVRGRAKLRIEKAMKEYEEEERKKRLGPGGLDPVEVYESLPEELQKCFDVKDVQMLQDAISKMDPTDAKYHMQRCIDSGLWVPNSKASEAKEGEEAGPGDPLLEAVPKTGDEKDVSV” the “soluble on expression in E. coli” value was “soluble”. In the case of “MRGSHHHHHHGSAHGLTDDMTMHFRMEGCVDGHKFVIEGNGNGNPFKGKQFINLCVIEGGPLPFSEDILSAAFDYGNRLFTEYPEGIVDYFKNSCPAGYTWHRSFRFEDGAVCICSADITVNVRENCIYHESTFYGVNFPADGPVMKKMTTNWEPSCEKIIPINSQKILKGDVSMYLLLKDGGRYRCQFDTIYKAKTEPKEMPDWHFIQHKLNREDRSDAKNQKWQLIEHAIASRSALP”, the “soluble on expression in E. coli” value is reported as “soluble”. In the case of “MRGSHHHHHHGSGKSYPTVSADYQKAVEKAKKKLRGFIAEKRCAPLMLRLAWHSAGTFDKGTKTGGPFGTIKHPAELAHSANNGLDIAVRLLEPLKAEFPILSYADFYQLAGVVAVEVTGGPEVPFHPGREDKPEPPPEGRLPDATKGSDHLRDVFGKAMGLTDQDIVALSGGHTIGAAHKERSGFEGPWTSNPLIFDNSYFTELLSGEKEGLLQLPSDKALLSDPVFRPLVDKYAADEDAFFADYAEAHQKLSELGFADAHEM”, the “soluble on expression in E. coli” value is reported as “soluble”. In the case of “MRGSHHHHHHGSMAVPPTYADLGKSARDVFTKGYGFGLIKLDLKTKSENGLEFTSSGSANTETTKVNGSLETKYRWTEYGLTFTEKWNTDNTLGTEITVEDQLARGLKLTFDSSFSPNTGKKNAKIKTGYKREHINLGCDVDFDIAGPSIRGALVLGYEGWLAGYQMNFETSKSRVTQSNFAVGYKTDEFQLHTNVNDGTEFGGSIYQKVNKKLETAVNLAWTAGNSNTRFGIAAKYQVDPDACFSAKVNNSSLIGLGYTQTLKPGIKLTLSALLDGKNVNAGGHKLGLGLEFQA”, the “soluble on expression in E. coli” value is reported as “soluble”. In the case of “MRGSHHHHHHTDPALRANEFSILCRVLGSLYYRQPQDPLLVPLFTLIREGKLAANWPLEQDELLTRLQKSCDMTQVSADYNALFIGDECAVPPYRSAWVEGATEAEVRAFLSERGMPLADTPADHIGTLLLAASWLEDQSTEDESEALETLFSEYLLPWCGAFLGKVEAHATTPFWRTMAPLTRDAISAMWDELEEDSEEGLCGR”, the “soluble on expression in E. coli” value is reported as “soluble”. With “MRHAVHQELIDTNPAANLGGVTTPPVRRHYPALPLERLPELLERIGAYHQGRELTRHAVLLMLHVFIRSSELRFARWSEIDFTNRVWTIPATREPIIGVRYSGRGAKMRMPHIVPLSEQSIAILKQIKDITGNNELIFPGDHNPYKPMCENTVNKALRVMGYDTKKDICGHGFRAMACSALMESGLWAKDAVERQMSHQERNTVRMAYIHKAEHLEARKAMMQWWSDYLEACRESYAPPYTIGKNKFIP” the “soluble on expression in E. coli” value was “not soluble”. In the case of “MRHILSVLIENESGAMSRVVGLFSARDYNIDSLAVAPTEDKTLSRMTIVTHGDEQVIEQITKQLNKLIEVIKVVDLNESRFVERELMLVKVRAAGKDRDEFLRLTEIYRGSIIDVTDRSYTIEITGSTDKLDSFLETVGRAQILETVRTGAAGIGRGERILKI”, the “soluble on expression in E. coli” value is reported as “not soluble”. In the case of “MRIALFTDTYIPQVNGVARTMKRLVDHLEKRQVEYALYMPETIEKLDRFESNIHTFASLPFFLYPECRIALPNVFKLRQQLTSFQPDLLHIATPFNVGLSGLQHGKKYGIPMVGSYHTHFDHYLHYYKLQFMSAWLWKYVKWFHQPFERTFVPSVETMRHLQKHGFQRLALWTRGVDCERFHPKQRHRSYAINLLPKDKAVLLYVGRLAPEKDLATLVAIMSLLPRELNEKIQWMIVGDGPSLPEMKKQCPSNVTFTGYLKGEELAAAYASADLFVFPSATETFGNVVLEAFASGTPAIVADRGGVTEIVEHGKSGMICKAGDAHTFIQAIEHLLMNRSKRAEMGYEARQYALTQSWERIFDDLLEQYEQVIFHHKKRHLALEHHHHHH”, the “soluble on expression in E. coli” value is reported as “not soluble”. In the case of “MRIALIFLVLLVSFASSCKNFDKYMNMFCRYGLEQSPCTVEDYSTYKSACCAMKNNCSYKEFPKDDVCCFTVECLKRCFPEKLLKNDKVY”, the “soluble on expression in E. coli” value is reported as “not soluble”. In the case of “MRIEKVDTFPLFHKLSSPYGDANGLKSYRTSYLIRITTASGLTGWGECADWLPALDAGFKKRIIPYLIGKEASNRTELITVIKKWHQRAASAVSMALTDITAKKAGLSVCELWGGKLREQIPVYASFQSYSDRPDWSRHSLRLIEKAVRAGFKAVKLKAGGKMFSEDLAHIQAFQEMTGQSTGLILDANQSYDQAAARKWETWFSGWQNVLWFEEPMPFDDLAEYRMLRSALSVPVAGGENVKGAKPFLPIFLENAVDIAQPDVMHCEGTDEFQTVLKLARHFGKRVSPHSYDGGLSRIYAAFGQACLPHWTKMDGEDIEPLEWDAMENPFAQIVPVSIKDGCIQVPDKIEIDTELVEAYVWDGSSYI”, the “soluble on expression in E. coli” value is reported as “soluble”. For “MRIELSIKADDSLVSFSHQHLLVGTLQKWLGENDMHGKSISYSFSRLNGGKLVSELNSILFADWANMFVSAHDPELIRRMLAGIRQDPEMFKSLCVREVTVIEDPDMTDREIFFPASPILLKRWREDNGFDHIVYTDEAANALLTENLRKKLQAVGIDDPTATASFVPDQGKAKVMLIDYRGVKNKASWCPIRIIGNAETKLFAWNAGIGNSTGIGFGAIK”, the “soluble on expression in E. coli” value was “not soluble”.
